Measurements as given in patent US20080207449A1 (CROPDESIGN N V, published 2008).

Experiments:
[1] = target: T1, pGBT DPb 1-385: GAL4 DNA-binding domain fusion of AtDPb 1-385 (Arabidopsis thaliana); test: yeast two-hybrid, growth on His- minimal medium; empty prey vector control; legend: -, no interaction
T1 construct: its construction is not described

[2] = target: T2, pGBTE2Fa226-356: GAL4 DNA-binding domain fusion of AtE2Fa amino acids 226-356 (Arabidopsis); test: as above
T2 construct: also called E2F5 dimerisation domain; E2Fa (=E2F5) dimerization domain

[3] = target: T3, pGBTE2Fb-Rb: GAL4 DNA-binding domain fusion of AtE2Fb amino acids 1-385 (lacking the Rb-binding domain) (Arabidopsis); test: as above
T3 construct: also called E2F3 N-terminal; E2Fb (=E2F3) N-terminal domain

[4] = target: T4, pGBT DPa 1-292: GAL4 DNA-binding domain fusion of AtDPa 1-292 (Arabidopsis thaliana); test: as above
T4 construct: its construction is not described

[5] = target: pGBTE2Fb 1-127: GAL4 DNA-binding domain fusion of AtE2Fb amino acids 1-127 (Arabidopsis); test: as above
[6] = target: T5, empty pGBT9 (GAL4 DNA-binding domain alone) (UniProt P04386 1-147); test: yeast two-hybrid, growth on His- minimal medium; both vectors empty; legend: -, no interaction
T5 construct: empty bait vector, control for specificity; also called pBGT9
Method: Different combinations between bait (pGBTE2Fa226-356, pGBTE2Fb-Rb, or pGBTE2Fb 1-127, SEQ ID NO:207) and prey constructs were transformed into yeast cells and assayed for their ability to grow on His⁻ minimal media after 3 days of incubation at 30° C. Bait plasmids co-transformed with empty pAD-GAL424 and prey plasmids co-transformed with empty pGBT9 were assessed along as controls for the specificity of the interaction.
Different combinations between AtE2Fs bait and AtDPs prey constructs were tested for growth on His minimal media. −, no interaction; +, positive interaction; NT, not tested.

Measured: binding result

B1: empty pAD-GAL424 (GAL4 transactivation domain alone) (other, UniProt P04386 768-881, looked up)
chain: ANFNQSGNIADSSLSFTFTNSSNGPNLITTQTNSQALSQPIASSNVHDNFMNNEITASKIDDGNNSKPLSPGWTDQTAYNAFGITTGMFNTTTMDDVYNYLFDDEDTPPNPKKE
notes: empty prey vector, control for specificity
no binding: all assays above
